Measured values from patent publication US20190321401A1 (JUNO THERAPEUTICS, published 2019).

Legend:
Assay in all cases: activation reporter or marker
[1] = target: T1, HPV 16 E7(11-19), single-substitution variant P7C (synthetic scanning library) peptide on HLA-A*02:01 (human)
T1 peptide: YMLDLQCET

[2] = target: T2, HPV 16 E7(11-19), single-substitution variant Y1V (synthetic scanning library) peptide on HLA-A*02:01 (human)
T2 peptide: VMLDLQPET

[3] = target: T3, HPV 16 E7(11-19), single-substitution variant T9L (synthetic scanning library) peptide on HLA-A*02:01 (human)
T3 peptide: YMLDLQPEL

[4] = target: T4, HPV 16 E7(11-19), single-substitution variant L5Y (synthetic scanning library) peptide on HLA-A*02:01 (human)
T4 peptide: YMLDYQPET

[5] = target: T5, HPV 16 E7(11-19), single-substitution variant Y1M (synthetic scanning library) peptide on HLA-A*02:01 (human)
T5 peptide: MMLDLQPET

[6] = target: T6, HPV 16 E7(11-19), single-substitution variant Q6H (synthetic scanning library) peptide on HLA-A*02:01 (human)
T6 peptide: YMLDLHPET

[7] = target: T7, HPV 16 E7(11-19), single-substitution variant L3C (synthetic scanning library) peptide on HLA-A*02:01 (human)
T7 peptide: YMCDLQPET

[8] = target: T8, HPV 16 E7(11-19), single-substitution variant T9V (synthetic scanning library) peptide on HLA-A*02:01 (human)
T8 peptide: YMLDLQPEV

[9] = target: T9, HPV 16 E7(11-19), single-substitution variant T9C (synthetic scanning library) peptide on HLA-A*02:01 (human)
T9 peptide: YMLDLQPEC

[10] = target: T10, HPV 16 E7(11-19), single-substitution variant E8S (synthetic scanning library) peptide on HLA-A*02:01 (human)
T10 peptide: YMLDLQPST

[11] = target: T11, HPV 16 E7(11-19), single-substitution variant E8I (synthetic scanning library) peptide on HLA-A*02:01 (human)
T11 peptide: YMLDLQPIT

[12] = target: T12, HPV 16 E7(11-19), single-substitution variant L3M (synthetic scanning library) peptide on HLA-A*02:01 (human)
T12 peptide: YMMDLQPET

[13] = target: T13, HPV 16 E7(11-19), single-substitution variant L3I (synthetic scanning library) peptide on HLA-A*02:01 (human)
T13 peptide: YMIDLQPET

[14] = target: T14, HPV 16 E7(11-19), single-substitution variant D4C (synthetic scanning library) peptide on HLA-A*02:01 (human)
T14 peptide: YMLCLQPET

[15] = target: T15, HPV 16 E7(11-19), single-substitution variant L5F (synthetic scanning library) peptide on HLA-A*02:01 (human)
T15 peptide: YMLDFQPET

[16] = target: T16, HPV 16 E7(11-19), single-substitution variant Y1F (synthetic scanning library) peptide on HLA-A*02:01 (human)
T16 peptide: FMLDLQPET

[17] = target: T17, HPV 16 E7(11-19), single-substitution variant Y1S (synthetic scanning library) peptide on HLA-A*02:01 (human)
T17 peptide: SMLDLQPET

[18] = target: T18, HPV 16 E7(11-19), single-substitution variant L5C (synthetic scanning library) peptide on HLA-A*02:01 (human)
T18 peptide: YMLDCQPET

[19] = target: T19, HPV 16 E7(11-19), single-substitution variant L3V (synthetic scanning library) peptide on HLA-A*02:01 (human)
T19 peptide: YMVDLQPET

[20] = target: T20, HPV 16 E7(11-19), single-substitution variant E8H (synthetic scanning library) peptide on HLA-A*02:01 (human)
T20 peptide: YMLDLQPHT

[21] = target: T21, HPV 16 E7(11-19), single-substitution variant D4N (synthetic scanning library) peptide on HLA-A*02:01 (human)
T21 peptide: YMLNLQPET

[22] = target: T22, HPV 16 E7(11-19), single-substitution variant E8C (synthetic scanning library) peptide on HLA-A*02:01 (human)
T22 peptide: YMLDLQPCT

[23] = target: T23, HPV 16 E7(11-19), single-substitution variant E8D (synthetic scanning library) peptide on HLA-A*02:01 (human)
T23 peptide: YMLDLQPDT

[24] = target: T24, HPV 16 E7(11-19), single-substitution variant E8V (synthetic scanning library) peptide on HLA-A*02:01 (human)
T24 peptide: YMLDLQPVT

[25] = target: T25, HPV 16 E7(11-19), single-substitution variant Y1T (synthetic scanning library) peptide on HLA-A*02:01 (human)
T25 peptide: TMLDLQPET

[26] = target: T26, HPV 16 E7(11-19), single-substitution variant E8K (synthetic scanning library) peptide on HLA-A*02:01 (human)
T26 peptide: YMLDLQPKT

[27] = target: T27, HPV 16 E7(11-19), single-substitution variant Y1C (synthetic scanning library) peptide on HLA-A*02:01 (human)
T27 peptide: CMLDLQPET

[28] = target: T28, HPV 16 E7(11-19), single-substitution variant E8T (synthetic scanning library) peptide on HLA-A*02:01 (human)
T28 peptide: YMLDLQPTT

[29] = target: T29, HPV 16 E7(11-19), single-substitution variant E8R (synthetic scanning library) peptide on HLA-A*02:01 (human)
T29 peptide: YMLDLQPRT

[30] = target: T30, HPV 16 E7(11-19), single-substitution variant E8M (synthetic scanning library) peptide on HLA-A*02:01 (human)
T30 peptide: YMLDLQPMT

Measured: binding result

B1: TCR 57 (TCR, V domains shown)
Valpha: TQLLEQSPQFLSIQEGENLTVYCNSSSVFSSLQWYRQEPGEGPVLLVTVVTGGEVKKLKRLTFQFGDARKDSSLHITAAQPGDTGLYLCAGARNFNKFYFGSGTKLNVKP
Vbeta: GAVVSQHPSWVICKSGTSVKIECRSLDFQATTMFWYRQFPKQSLMLMATSNEGSKATYEQGVEKDKFLINHASLTLSTLTVTSAHPEDSSFYICSARSWRGGLEQFFGPGTRLTVL
recognises: all assays above
